Values of other authors in PMC3197216.
pKd: −log10 of the molar value.

How the values were obtained:
[1] = biological target: GluA3 ATD (Rattus norvegicus) (UniProt P19492)
[2] = biological target: KA2 ATD (Rattus norvegicus) (UniProt Q63273)
[3] = biological target: NR2 ATD (Rattus norvegicus) (UniProt Q00960)
Chain of UniProt Q00960 (Q00960 31-394): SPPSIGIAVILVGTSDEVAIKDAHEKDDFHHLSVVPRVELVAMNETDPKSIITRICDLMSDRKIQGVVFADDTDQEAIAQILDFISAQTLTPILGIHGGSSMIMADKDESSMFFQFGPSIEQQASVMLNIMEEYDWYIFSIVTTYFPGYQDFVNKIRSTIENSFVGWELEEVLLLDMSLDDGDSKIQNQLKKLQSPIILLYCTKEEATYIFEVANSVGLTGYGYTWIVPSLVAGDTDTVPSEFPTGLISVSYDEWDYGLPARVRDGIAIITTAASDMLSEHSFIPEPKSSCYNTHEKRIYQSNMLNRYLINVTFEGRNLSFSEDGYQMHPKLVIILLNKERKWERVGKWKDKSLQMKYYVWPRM

Chain of UniProt Q63273 (Q63273 20-402): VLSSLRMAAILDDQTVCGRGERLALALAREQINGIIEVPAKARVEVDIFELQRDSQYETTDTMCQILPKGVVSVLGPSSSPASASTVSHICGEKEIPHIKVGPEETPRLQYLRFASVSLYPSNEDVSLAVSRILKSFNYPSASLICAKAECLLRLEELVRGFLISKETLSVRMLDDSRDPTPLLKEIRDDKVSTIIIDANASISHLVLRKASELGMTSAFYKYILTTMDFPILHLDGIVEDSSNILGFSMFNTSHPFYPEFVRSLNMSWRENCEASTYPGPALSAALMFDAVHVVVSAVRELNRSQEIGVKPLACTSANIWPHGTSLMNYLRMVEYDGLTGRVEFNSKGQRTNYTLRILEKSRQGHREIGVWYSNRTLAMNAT

Substance: GluA3 ATD (from UniProt P19492)
- pKd [1]: 5.92

Substance: GluR6 ATD (from UniProt P42260)
- pKd [2]: 7.96

Substance: NR1 ATD (from UniProt P35439)
- pKd [3]: 6.15
